In publication doi:10.1101/2025.11.11.687775:
pKd: −log10 of the molar value. Like-named read-outs stand apart in the source and are kept apart here.

Legend:
[1] = target: microtubules of primary rat hippocampal neurons (rat (endogenous in primary hippocampal neurons)) (UniProt P68370); experiment: FRAP + reaction-diffusion simulation
[2] = target: microtubules of primary rat hippocampal neurons (rat (endogenous in primary hippocampal neurons)) (UniProt P68370)
[3] = target: microtubules of Tau-knockout mouse neurons (mouse (endogenous in Tau-KO neurons)) (UniProt P68369)
[4] = target: microtubules of primary rat hippocampal neurons (rat (endogenous in primary hippocampal neurons)) (UniProt P68370); experiment: FRAP + reaction-diffusion simulation; remark: listed apart in the source
[5] = target: microtubules of primary rat hippocampal neurons (rat (endogenous in primary hippocampal neurons)) (UniProt P68370); remark: listed apart in the source

Substance	pKd [1]	FRAP recovery plateau in rat neurons (Figure 3B) [2]	further results
GFP-tagged Tau 198A/199A/202A/205A mutant (4A) (natural protein)	6.29		
GFP-tagged Tau 199A single alanine substitution mutant (natural protein)	5.87	0.584	
GFP-tagged Tau 198A single alanine substitution mutant (natural protein)		0.586	
GFP-tagged Tau 198A/199A mutant (2A) (natural protein)	6.04		
GFP-tagged wild-type human Tau, 0N4R isoform (AcGFP-Tau0N4R-His) (from UniProt P10636-6 1-383) (natural protein)	5.52	0.712	FRAP recovery rate constant (K), n = 6 (read as Tau-KO neurons) [3]: 0.085; koff [1]: > 0.1 s⁻¹; kon [1]: > 300000 M⁻¹ s⁻¹; koff [4]: > 0.3 s⁻¹; kon [4]: > 100000 M⁻¹ s⁻¹; FRAP recovery rate constant (K) in rat neurons (Figure 3D), n = 12 [5]: 0.081
